Measurements from the supplement of paper PMC7877785.
± gives the uncertainty stated by the source.

Test: self-splicing fitness, log relative to wild type (ln ratio); higher = more splicing; Tetrahymena group I intron in knt gene, E. coli kanamycin selection, DiMSum; sequences stand for … in CUCUCU…GGAGGGAAAAGUUAUCAGGCAUGCACCUGGUAGCUAGUCUUUAAACCAAUAGAUUGCAUCGGUUUAAAAGGCAAGACCGUCAAAUUGCGGGAAAGGGGUCAACAGCCGUUCAGUACCAAGUCUCAGGGGAAACUUUGAGAUGGCCUUGCAAAGGGUAUGGUAAUAAGCUGACGGACAUGGUCCUAACCACGCAGCCAAGUCCUAAGUCAACAGAUCUUCUGUUGAUAUGGAUGCAGUUCACAGACUAAAUGUCGGUCGGGGAAGAUGUAUUCUUCUCAUAAGAUAUAGUCGGACCUCUCCUUAAUGGGAGCUAGCGGAUGAAGUGAUGCAACACUGGAGCCGCUGGGAACUAAUUUGUAUGCGAAAGUAUAUUGAUUAGUUUUGGAGUACUCGUGGUCG
In short: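 The eight P1ex-region nucleotides of an intron in the knt kanamycin-resistance gene on pET-22b(+) were all randomised and the library put into E. coli BL21(DE3). Six replicate transformations were grown overnight at 37°C or 30°C on LB agar with or without 25 μg/mL kanamycin, together with 100 μg/mL carbenicillin, 50 μM IPTG and 0.2% rhamnose. Colonies were pooled and amplicon-sequenced on an Illumina HiSeq 2500. Fitness from DiMSum is the error-weighted combination of wild-type-normalised replicate fold changes, kanamycin over none.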

For UGCGAGCAAUAUUACGAGAU, the “self-splicing fitness (ln)” value (30 °C) was -2.4 ± 0.33 and the “self-splicing fitness (ln)” value (37 °C) was -3.21 ± 0.35.
For AACAAGCAAUAUUACGUGAG, the “self-splicing fitness (ln)” value (30 °C) was -1.74 ± 0.05 and the “self-splicing fitness (ln)” value (37 °C) was -1.01 ± 0.067.
With GAUCAGCAAUAUUACGUGCC the “self-splicing fitness (ln)” value (30 °C) was -1.16 ± 0.13 and the “self-splicing fitness (ln)” value (37 °C) was -0.652 ± 0.24.
With CCGAAGCAAUAUUACGAGGU the “self-splicing fitness (ln)” value (30 °C) was -3.79 ± 0.2 and the “self-splicing fitness (ln)” value (37 °C) was -2.9 ± 0.26.
For UAACAGCAAUAUUACGGAGA, the “self-splicing fitness (ln)” value (30 °C) was -3.27 ± 0.21 and the “self-splicing fitness (ln)” value (37 °C) was -1.1 ± 0.11.
For UGUAAGCAAUAUUACGUCGG, the “self-splicing fitness (ln)” value (30 °C) was -1.67 ± 0.13 and the “self-splicing fitness (ln)” value (37 °C) was -1.95 ± 0.14.
With AAGAAGCAAUAUUACGUCAU the “self-splicing fitness (ln)” value (30 °C) was -1.81 ± 0.075 and the “self-splicing fitness (ln)” value (37 °C) was -1.04 ± 0.1.
With AUCAAGCAAUAUUACGCAAG the “self-splicing fitness (ln)” value (30 °C) was -1.99 ± 0.15 and the “self-splicing fitness (ln)” value (37 °C) was -0.935 ± 0.15.
With AUACAGCAAUAUUACGCCCG the “self-splicing fitness (ln)” value (30 °C) was -0.847 ± 0.17 and the “self-splicing fitness (ln)” value (37 °C) was -0.634 ± 0.25.
For UGGCAGCAAUAUUACGUUUG, the “self-splicing fitness (ln)” value (30 °C) was -0.921 ± 0.06 and the “self-splicing fitness (ln)” value (37 °C) was -0.496 ± 0.089.
In the case of AGAAAGCAAUAUUACGGAAU, the “self-splicing fitness (ln)” value (30 °C) is reported as -2.02 ± 0.15 and the “self-splicing fitness (ln)” value (37 °C) is reported as -1.74 ± 0.2.
With UCCAAGCAAUAUUACGGUUU the “self-splicing fitness (ln)” value (30 °C) was -3.75 ± 0.2 and the “self-splicing fitness (ln)” value (37 °C) was -2.48 ± 0.21.
In the case of CGUAAGCAAUAUUACGUGUC, the “self-splicing fitness (ln)” value (30 °C) is reported as -1.85 ± 0.22 and the “self-splicing fitness (ln)” value (37 °C) is reported as -3.01 ± 0.28.
For AAAAAGCAAUAUUACGUCUG, the “self-splicing fitness (ln)” value (30 °C) was -0.785 ± 0.058 and the “self-splicing fitness (ln)” value (37 °C) was -0.319 ± 0.072.
For UCGCAGCAAUAUUACGGACC, the “self-splicing fitness (ln)” value (30 °C) was -3.5 ± 0.41 and the “self-splicing fitness (ln)” value (37 °C) was -2.69 ± 0.33.
In the case of AUCAAGCAAUAUUACGGGCA, the “self-splicing fitness (ln)” value (30 °C) is reported as -1.42 ± 0.098 and the “self-splicing fitness (ln)” value (37 °C) is reported as -0.95 ± 0.098.
In the case of GGCCAGCAAUAUUACGUCAU, the “self-splicing fitness (ln)” value (30 °C) is reported as -1.7 ± 0.063 and the “self-splicing fitness (ln)” value (37 °C) is reported as -1.27 ± 0.08.
With CACUAGCAAUAUUACGUGUA the “self-splicing fitness (ln)” value (30 °C) was -2 ± 0.11 and the “self-splicing fitness (ln)” value (37 °C) was -1.47 ± 0.12.
With UUUGAGCAAUAUUACGCUGU the “self-splicing fitness (ln)” value (30 °C) was -3.01 ± 0.27.
With UAUCAGCAAUAUUACGGGAU the “self-splicing fitness (ln)” value (30 °C) was -3.78 ± 0.24 and the “self-splicing fitness (ln)” value (37 °C) was -1.72 ± 0.14.
For AAAUAGCAAUAUUACGCAUA, the “self-splicing fitness (ln)” value (30 °C) was -1.7 ± 0.11 and the “self-splicing fitness (ln)” value (37 °C) was -0.726 ± 0.11.
For GACGAGCAAUAUUACGUGCC, the “self-splicing fitness (ln)” value (30 °C) was -1.56 ± 0.14 and the “self-splicing fitness (ln)” value (37 °C) was -1.97 ± 0.26.
In the case of AGCGAGCAAUAUUACGGUGC, the “self-splicing fitness (ln)” value (30 °C) is reported as -4.03 ± 0.28 and the “self-splicing fitness (ln)” value (37 °C) is reported as -2.97 ± 0.24.
With GCAAAGCAAUAUUACGGCGA the “self-splicing fitness (ln)” value (30 °C) was -0.683 ± 0.067 and the “self-splicing fitness (ln)” value (37 °C) was -0.115 ± 0.084.
For UCCGAGCAAUAUUACGGCUG, the “self-splicing fitness (ln)” value (30 °C) was -2.83 ± 0.19 and the “self-splicing fitness (ln)” value (37 °C) was -1.6 ± 0.29.
For CGCCAGCAAUAUUACGCGCC, the “self-splicing fitness (ln)” value (30 °C) was -1.82 ± 0.27 and the “self-splicing fitness (ln)” value (37 °C) was -1.15 ± 0.27.
For GACGAGCAAUAUUACGGACU, the “self-splicing fitness (ln)” value (30 °C) was -0.448 ± 0.15 and the “self-splicing fitness (ln)” value (37 °C) was -0.75 ± 0.18.
With AGGGAGCAAUAUUACGGAAC the “self-splicing fitness (ln)” value (30 °C) was -3.01 ± 0.38 and the “self-splicing fitness (ln)” value (37 °C) was -2.68 ± 0.41.
For CCGUAGCAAUAUUACGCCUA, the “self-splicing fitness (ln)” value (30 °C) was -3.02 ± 0.34 and the “self-splicing fitness (ln)” value (37 °C) was -2.11 ± 0.27.
In the case of AGAAAGCAAUAUUACGUGGC, the “self-splicing fitness (ln)” value (30 °C) is reported as -3.67 ± 0.3 and the “self-splicing fitness (ln)” value (37 °C) is reported as -1.14 ± 0.19.
For UUUGAGCAAUAUUACGUUUA, the “self-splicing fitness (ln)” value (30 °C) was -3.32 ± 0.24 and the “self-splicing fitness (ln)” value (37 °C) was -2.21 ± 0.23.
With UACAAGCAAUAUUACGGUCA the “self-splicing fitness (ln)” value (30 °C) was 0.157 ± 0.062 and the “self-splicing fitness (ln)” value (37 °C) was 0.514 ± 0.072.
With UGGGAGCAAUAUUACGCAGC the “self-splicing fitness (ln)” value (37 °C) was -3.01 ± 0.49.
With CGUAAGCAAUAUUACGUCCG the “self-splicing fitness (ln)” value (30 °C) was -0.78 ± 0.059 and the “self-splicing fitness (ln)” value (37 °C) was -0.649 ± 0.08.
In the case of CCCUAGCAAUAUUACGUAAG, the “self-splicing fitness (ln)” value (30 °C) is reported as -3.8 ± 0.18 and the “self-splicing fitness (ln)” value (37 °C) is reported as -2.04 ± 0.17.
With CGGAAGCAAUAUUACGAAAU the “self-splicing fitness (ln)” value (30 °C) was -3.59 ± 0.45 and the “self-splicing fitness (ln)” value (37 °C) was -2.96 ± 0.31.
In the case of GGUGAGCAAUAUUACGAUAA, the “self-splicing fitness (ln)” value (30 °C) is reported as -1.22 ± 0.47.
In the case of UUAUAGCAAUAUUACGACGC, the “self-splicing fitness (ln)” value (30 °C) is reported as -2.63 ± 0.45.
With GCUGAGCAAUAUUACGACCC the “self-splicing fitness (ln)” value (37 °C) was -0.524 ± 0.39.
